One may read the Kd as a measure of binding affinity in units of concentration. A low value points to higher affinity.

Experiment [1] addresses T1, protein A (Sigma), biotinylated (UniProt P38507 37-477).
T1 construct: Immobilised on streptavidin-coated tubes; also called pA
As to the kind of experiment: protein-DNA complex captured on biotinylated protein in streptavidin-coated PCR tubes; co-captured DNA detected by PCR and gel.

The target in experiment [2] is T2, BSA (Sigma), biotinylated (UniProt P02769 25-607).
T2 construct: Negative control surface
The description is as above.

The target of experiment [3] is T3, β-galactosidase (Sigma), biotinylated (Escherichia coli (strain K12), UniProt P00722 2-1024 = β-galactosidase, Biotinylated (sites not given); the native enzyme is a homotetramer, and one chain is given).
T3 construct: Immobilised on streptavidin-coated tubes or wells
As to the kind of experiment: method not stated.

Experiment [4] has as its target T4, human TNF receptor, biotinylated (human, UniProt P19438 30-211, limits assumed, biotinylated).
T4 construct: Immobilised on streptavidin-coated tubes
T4 sequence (looked up): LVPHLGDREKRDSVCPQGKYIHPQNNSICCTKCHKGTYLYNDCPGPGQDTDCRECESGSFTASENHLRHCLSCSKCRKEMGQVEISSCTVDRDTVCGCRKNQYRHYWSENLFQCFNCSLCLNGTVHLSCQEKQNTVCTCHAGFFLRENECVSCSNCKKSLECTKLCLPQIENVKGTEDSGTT
As to the kind of experiment: protein-DNA complex captured on biotinylated protein in streptavidin-coated PCR tubes; co-captured DNA detected by PCR and gel.

T2 sequence (P02769 25-607 limits assumed): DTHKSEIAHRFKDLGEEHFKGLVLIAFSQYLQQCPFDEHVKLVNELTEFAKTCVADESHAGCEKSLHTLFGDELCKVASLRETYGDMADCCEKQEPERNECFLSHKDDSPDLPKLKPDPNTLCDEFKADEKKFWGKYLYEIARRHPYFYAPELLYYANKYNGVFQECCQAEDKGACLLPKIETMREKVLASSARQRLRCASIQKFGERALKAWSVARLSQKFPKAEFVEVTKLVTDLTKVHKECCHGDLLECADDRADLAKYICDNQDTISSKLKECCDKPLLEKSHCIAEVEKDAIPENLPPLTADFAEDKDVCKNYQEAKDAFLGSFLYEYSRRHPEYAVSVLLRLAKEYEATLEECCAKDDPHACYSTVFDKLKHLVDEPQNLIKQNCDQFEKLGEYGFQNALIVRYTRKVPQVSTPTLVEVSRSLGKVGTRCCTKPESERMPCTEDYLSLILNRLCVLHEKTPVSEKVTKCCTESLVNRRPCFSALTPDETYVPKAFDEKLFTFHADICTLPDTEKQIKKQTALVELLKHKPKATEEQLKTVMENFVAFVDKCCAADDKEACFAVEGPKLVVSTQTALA
T3 sequence (P00722 2-1024 limits assumed): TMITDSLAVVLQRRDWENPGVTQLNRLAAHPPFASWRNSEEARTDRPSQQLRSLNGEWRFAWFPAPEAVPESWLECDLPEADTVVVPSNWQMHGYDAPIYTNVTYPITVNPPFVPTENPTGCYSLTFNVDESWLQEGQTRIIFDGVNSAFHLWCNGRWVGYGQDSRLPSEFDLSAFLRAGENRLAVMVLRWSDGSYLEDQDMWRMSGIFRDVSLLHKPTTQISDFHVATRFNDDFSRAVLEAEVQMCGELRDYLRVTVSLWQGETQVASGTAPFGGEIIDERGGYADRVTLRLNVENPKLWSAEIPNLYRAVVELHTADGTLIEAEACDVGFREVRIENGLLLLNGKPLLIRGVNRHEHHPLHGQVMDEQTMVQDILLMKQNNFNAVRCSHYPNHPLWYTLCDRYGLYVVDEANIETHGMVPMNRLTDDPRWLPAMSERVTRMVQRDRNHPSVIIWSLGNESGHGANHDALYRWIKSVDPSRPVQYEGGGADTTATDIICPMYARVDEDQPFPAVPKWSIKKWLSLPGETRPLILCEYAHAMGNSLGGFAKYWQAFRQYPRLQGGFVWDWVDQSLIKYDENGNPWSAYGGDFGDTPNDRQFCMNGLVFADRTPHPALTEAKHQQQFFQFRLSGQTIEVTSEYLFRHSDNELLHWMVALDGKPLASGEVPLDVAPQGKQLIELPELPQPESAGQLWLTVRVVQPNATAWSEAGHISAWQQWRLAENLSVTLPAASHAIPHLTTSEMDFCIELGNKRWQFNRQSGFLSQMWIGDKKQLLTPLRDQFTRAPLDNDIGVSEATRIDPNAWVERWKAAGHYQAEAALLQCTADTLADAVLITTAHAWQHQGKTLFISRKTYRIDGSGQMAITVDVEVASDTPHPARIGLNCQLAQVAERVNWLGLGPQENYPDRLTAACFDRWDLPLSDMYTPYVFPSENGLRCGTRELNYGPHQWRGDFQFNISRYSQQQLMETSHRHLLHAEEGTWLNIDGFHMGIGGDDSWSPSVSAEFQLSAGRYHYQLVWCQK

B1: scArc expressed from pIE7aA, pIE7a2A, pIE7a3A or pIE7a4A (other)
chain: MGSTGGAAAKEAAAKEAAAKEAAAKELAAKEAAAKEAAAKEAAAKELAAGSGGGSGGGHMKGMSKMPQFNLRWPREVLDLVRKVAEENGRSVNSEIYQRVMESFKKEGRIGAGGGSGGGSGGGSGGGHMKGMSKMPQFNLRWPREVLDLVRKVAEENGRSVNSEIYQRVMESFKKEGRIGAGGGSGGGSYPYDVPDYA
notes: in vitro translated in the presence of 3F10 αHA mAb; also called scArc complex with DNA
For B1, the binding result in experiment [1] and in experiment [2] was “no binding” throughout.

B2: anti-β-galactosidase Vκ domain antibody clone E5 (other)
VL: DIQMTQSPSSLSASVGDRVTITCRASQSVSSYLNWYQQKPGKAPKLLIYLASRLQSGVPSRFSGSGSGTDFTLTISSLQPEDFATYYCQQNWWLPPTFGQGTKVEIK
notes: The Vκ single domain itself; also called Vκ(E5); Vk(E5)
Take B2: the Kd in experiment [3] is more than 1 µM.

B3: HA-tagged scArc repressor expressed from pIE3A / pIE3aA-derived genetic elements (other)
chain: MSGSGGGSGGGHMKGMSKMPQFNLRWPREVLDLVRKVAEENGRSVNSEIYQRVMESFKKEGRIGAGGGSGGGSGGGSGGGHMKGMSKMPQFNLRWPREVLDLVRKVAEENGRSVNSEIYQRVMESFKKEGRIGAGGGSGGGSMGSTGGAAARSYPYDVPDYA
notes: In vitro translated; differs from the pIE2 form in that the MCS-encoded region lies between scArc and the HA tag; also called pIE3-derived scArc-HA; scArc-HA
With B3, in experiment [2], the binding result was “no binding”.

B4: HA-tagged scArc repressor expressed from pIE2aA / pIE2a^2A-derived genetic elements (other)
chain: MGSTGGAAAGSGGGSGGGHMKGMSKMPQFNLRWPREVLDLVRKVAEENGRSVNSEIYQRVMESFKKEGRIGAGGGSGGGSGGGSGGGHMKGMSKMPQFNLRWPREVLDLVRKVAEENGRSVNSEIYQRVMESFKKEGRIGAGGGSGGGSYPYDVPDYA
notes: The same protein is encoded by pIE2A, pIE2aA and pIE2a^2A (they differ in the number of operators on the DNA); also called scArc-HA; pIE2-encoded scArc-HA
Take B4: the binding result in experiment [1], in experiment [4] and in experiment [2] was “no binding” each time.

B5: VH(DOM1h-10-27)-scArc fusion protein (pIE2aAVH(DOM1h-10-27)) (other)
chain: MAEVQLLESGGGLVQPGGSLRLSCAASGFTFEWYWMGWVRQAPGKGLEWVSAISGSGGSTYYADSVKGRFTISRDNSKNTLYLQMNSLRAEDAAVYYCAKVKLGGGPNFGYRGQGTLVTVSSAAGGGSGGGHMKGMSKMPQFNLRWPREVLDLVRKVAEENGRSVNSEIYQRVMESFKKEGRIGAGGGSGGGSGGGSGGGHMKGMSKMPQFNLRWPREVLDLVRKVAEENGRSVNSEIYQRVMESFKKEGRIGAGGGSGGGSYPYDVPDYA
notes: Human heavy chain VH domain antibody against human TNF receptor fused to scArc; in vitro translated, assayed as protein-DNA complex (one Arc operator), with the stabilising 3F10 mAb; also called VH(DOM1h-10-27) domain antibody fusion construct with scArc
Take B5: in experiment [2], the binding result is “no binding”.

The values are drawn from patent US20090176209A1 (DOMANTIS, published 2009).
